Reference: US7601333B2, “Use of a tetrapeptide AcSDKP (SEQ ID No. 1) analog resistant to the angiotensin I converting enzyme for measuring glomerular filtration rate in a human or an animal and kit containing same” (Assistance Publique-Hopitaux de Paris, priority 2003, dated 2009)
No end group written: not given here.

B1: N-acetyl-Ser-Asp-Lys-Pro (AcSDKP) (peptide)
peptide: Ac-SDKP
B2: N-acetyl-Ser-Asp-Lys-Pro-NH2 (AcSDKP-NH2) (peptide)
peptide: Ac-SDKP-NH2

Assays:
[1] = biological target: human converting enzyme (human ACE) (human, UniProt P12821 30-1306, limits assumed); assay: cell-based or functional assay
[2] = biological target: T1, rat lung ACE (angiotensin I converting enzyme in ground rat lung material) (rat, UniProt P47820 36-1313, limits assumed); assay: cell-based or functional assay
T1 sequence (looked up): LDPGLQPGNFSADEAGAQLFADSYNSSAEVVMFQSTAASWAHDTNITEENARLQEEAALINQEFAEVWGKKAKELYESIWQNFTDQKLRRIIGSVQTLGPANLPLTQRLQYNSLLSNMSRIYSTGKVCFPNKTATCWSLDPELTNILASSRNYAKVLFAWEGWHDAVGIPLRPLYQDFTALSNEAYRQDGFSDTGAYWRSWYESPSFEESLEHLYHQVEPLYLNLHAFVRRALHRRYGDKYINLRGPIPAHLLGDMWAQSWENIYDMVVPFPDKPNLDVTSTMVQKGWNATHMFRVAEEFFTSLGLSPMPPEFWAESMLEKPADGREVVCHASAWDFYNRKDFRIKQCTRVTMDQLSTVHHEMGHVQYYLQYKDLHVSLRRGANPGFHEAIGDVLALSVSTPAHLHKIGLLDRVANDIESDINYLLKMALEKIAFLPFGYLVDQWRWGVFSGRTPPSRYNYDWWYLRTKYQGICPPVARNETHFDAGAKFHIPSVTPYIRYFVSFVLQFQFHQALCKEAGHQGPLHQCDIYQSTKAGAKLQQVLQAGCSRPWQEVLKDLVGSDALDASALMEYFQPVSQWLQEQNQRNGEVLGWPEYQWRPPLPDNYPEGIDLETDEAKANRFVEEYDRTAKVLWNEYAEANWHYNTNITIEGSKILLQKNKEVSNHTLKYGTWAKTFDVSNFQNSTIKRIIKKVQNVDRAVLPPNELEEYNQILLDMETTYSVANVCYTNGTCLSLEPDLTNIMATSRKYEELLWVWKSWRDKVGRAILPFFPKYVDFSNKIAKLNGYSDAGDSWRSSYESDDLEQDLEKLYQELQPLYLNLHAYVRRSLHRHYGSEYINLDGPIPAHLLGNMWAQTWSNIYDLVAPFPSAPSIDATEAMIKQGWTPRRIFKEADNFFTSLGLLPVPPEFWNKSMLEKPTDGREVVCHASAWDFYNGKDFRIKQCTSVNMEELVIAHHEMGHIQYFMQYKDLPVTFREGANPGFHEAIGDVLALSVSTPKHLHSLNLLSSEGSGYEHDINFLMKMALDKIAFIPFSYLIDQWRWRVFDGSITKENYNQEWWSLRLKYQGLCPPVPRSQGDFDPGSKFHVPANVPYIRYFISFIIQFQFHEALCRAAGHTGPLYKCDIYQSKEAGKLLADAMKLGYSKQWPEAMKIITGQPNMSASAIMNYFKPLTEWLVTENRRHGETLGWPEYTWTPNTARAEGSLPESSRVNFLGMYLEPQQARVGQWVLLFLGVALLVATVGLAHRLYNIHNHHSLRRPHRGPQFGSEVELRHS

Binder | in vitro degradation: % of peptide assayed relative to the control (enzyme immunoassay), T10 min, no captopril [1] | in vitro degradation: % of peptide assayed relative to the control (enzyme immunoassay), T10 min, with captopril 10 uM [1] | in vitro degradation: % of peptide assayed relative to the control (enzyme immunoassay), T30 min, no captopril [1] | in vitro degradation: % of peptide assayed relative to the control (enzyme immunoassay), T30 min, with captopril 10 uM [1] | in vitro degradation: % of peptide assayed relative to the control (enzyme immunoassay), T60 min, no captopril [1] | in vitro degradation: % of peptide assayed relative to the control (enzyme immunoassay), T60 min, with captopril 10 uM [1] | in vitro degradation: % of peptide assayed relative to the control (enzyme immunoassay), T120 min, no captopril [1] | in vitro degradation: % of peptide assayed relative to the control (enzyme immunoassay), T120 min, with captopril 10 uM [1] | in vitro degradation: % of peptide assayed relative to the control (enzyme immunoassay), T240 min, no captopril [1] | in vitro degradation: % of peptide assayed relative to the control (enzyme immunoassay), T240 min, with captopril 10 uM [1] | in vitro degradation: % of peptide assayed relative to the control (enzyme immunoassay), T30 min, no captopril [2] | in vitro degradation: % of peptide assayed relative to the control (enzyme immunoassay), T30 min, with captopril 10 uM [2] | in vitro degradation: % of peptide assayed relative to the control (enzyme immunoassay), T60 min, no captopril [2] | in vitro degradation: % of peptide assayed relative to the control (enzyme immunoassay), T60 min, with captopril 10 uM [2] | in vitro degradation: % of peptide assayed relative to the control (enzyme immunoassay), T120 min, no captopril [2] | in vitro degradation: % of peptide assayed relative to the control (enzyme immunoassay), T120 min, with captopril 10 uM [2] | in vitro degradation: % of peptide assayed relative to the control (enzyme immunoassay), T240 min, no captopril [2] | in vitro degradation: % of peptide assayed relative to the control (enzyme immunoassay), T240 min, with captopril 10 uM [2] | in vitro degradation: % of peptide assayed relative to the control (enzyme immunoassay), T1440 min, no captopril [1] | in vitro degradation: % of peptide assayed relative to the control (enzyme immunoassay), T1440 min, with captopril 10 uM [1]
B1 | 82% | 90% | 75% | 100% | 50% | 85% | 25% | 85% | 7% | 100% | 28% | 129% | 9% | 111% | 5% | 75% | 5% | 89% | – | –
B2 | 79% | 90% | 100% | 162% | 116% | 78% | 116% | 95% | 107% | 104% | 100% | 125% | 65% | 65% | 95% | 109% | 126% | 136% | 86% | 117%
